Data taken from article PMC10401102, “Repurposing CRISPR/Cas to Discover SARS‐CoV‐2 Detecting and Neutralizing Aptamers”.

Legend:
[1] = molecular target: T1, SARS-CoV-2 Spike RBD (original) (SARS-CoV-2 (original), UniProt P0DTC2 319-541); assay: ELONA; 25 C
[2] = molecular target: T1, SARS-CoV-2 Spike RBD (original); assay: EMSA

Binder	Kd [1]	binding result [2]
ACUUGGCCAAUUACCGUAGUUUUUGUAGUCUGCAGGGCCAAGUG (structured_RNA) [#5-2-15]	24.7 nM	–
ACUUGGCCAAUUACCGUAGUUUUUGUAGUCUGCAGGGCCAAGUG (structured_RNA, 2'-F at pyrimidines, 2'-O-methyl at purines) [#5-2-15-2'-F-O]	–	binds
ACUUGGCCAUUUUUCUUUUUCUUUUUCUUUUUCUGCAGGGCCAAGUG (ssRNA) [NC-RNA apt]	–	no binding
ACUUGGCCACGUCGACUGAAAUCCUCUUCCUGCAGGGCCAAGUG (structured_RNA) [#2-1-18]	16.8 nM	–
ACUUGGCCACGUCGACUGAAAUCCUCUUCCUGCAGGGCCAAGUG (structured_RNA, 2'-F at pyrimidines, 2'-O-methyl at purines) [#2-1-18-2'-F-O]	–	binds
